Data: US9145555B2, “Integrated—ligand-responsive microRNAs” (California Institute of Technology, priority 2009, dated 2015)

Experiments:
[1] = tested on: xanthine aptamer; details: cited from earlier work
[2] = tested on: transcript encoding the green fluorescent protein (GFP) in HEK 293 cells stably expressing GFP; experiment: Cell culture assay for miRNA activity (GFP silencing, transient transfection, flow cytometry); assay type: cell-based, human; details: for response of GFP levels to tetracycline: 100 μM tetracycline; for GFP silencing: single copy, absence of ligand; for response of GFP levels to theophylline: transient transfection with varying theophylline concentrations; for response of GFP levels to hypoxanthine: 5 mM hypoxanthine
Text: To examine the relationship between bulge size in the basal segments and gene silencing, we developed a general cell culture assay for miRNA activity (FIG. 1D). miRNAs designed to target a transcript encoding the green fluorescent protein (GFP) were inserted into the 3′ untranslated region (UTR) of a constitutively-expressed transcript encoding the fluorescent protein DsRed-Express. Plasmid DNA encoding the DsRed-Express construct was transfected into HEK 293 cells stably expressing GFP. The level of miRNA-mediated gene silencing was determined by flow cytometry analysis, where DsRed-Express levels were used to distinguish between transfected and untransfected cells. Using the cell culture assay, miRNAs with the same bulges as in the in vitro experiments were tested for silencing efficiency. […] Therefore, proper Drosha processing and gene silencing correlate with the size of the bulge in the miRNA basal segments.
293 and Flp-In-293 cells were maintained in DMEM supplemented with 10% FBS at 37° C. in a 5% CO2—humidified incubator. Transient transfections were conducted with Fugene 6 (Roche) according to the manufacturer's instructions one day after seeding. Immediately prior to transfection, the media was supplemented with the appropriate ligand at the specified concentration. Ligand concentrations were selected to maximize the regulatory response without severely compromising cell viability over the course of the transient assays. The media was replaced two days post-transfection. Three days post-transfection, the cells were trypsinized and subjected to flow cytometry analysis on a Cell Lab Quanta SC MPL (Beckman Coulter) and the resulting data was analyzed using the Flowjo software (Tree Star). Cells were initially gated for viability by electronic volume and side scatter. GFP and DsRed fluorescence of viable cells were measured through a 525 nm and […] band pass filter, respectively, after excitation with a 488 nm laser. Moderate to high DsRed levels served as a transfection control to gate between transfected and untransfected cells. Transfected cells could be distinguished from untransfected cells with this method even when four miRNAs were present in the 3′ UTR of the DsRed-Express encoding transcript (data not shown). GFP levels were calculated as the median fluorescence of the transfected population divided by that of the untransfected population (Beisel et al., 2008). This normalization approach corrected for the bias from pleiotropic effects associated with each small molecule. All ratios were normalized such that the value for DsRed-Express lacking a miRNA under the same conditions was set to 100%.

[3] = tested on: transcript encoding DsRed-Express; experiment: DsRed-Express levels in stable cell lines with La-targeting miRNAs (flow cytometry); assay type: cell-based, human; details: four copies; for response of DsRed levels to theophylline: 1.5 mM theophylline; for DsRed-Express down-regulation in cis: stable cell lines
Text: To assess the capacity for ligand-responsive miRNAs to regulate gene expression in cis, we measured expression levels for the transcripts harboring the ligand-responsive miRNAs targeting GFP and La. DsRed-Express levels were quantified by flow cytometry under similar conditions as the trans-targeted gene silencing experiments. […] Transcript analysis confirmed that the predominant regulatory mechanism of ligand-responsive miRNAs in cis is mRNA destabilization (FIG. 10).
(§1) Stable transfection of 293-Flp-In cell lines was performed using the Flp-In recombinase system (Invitrogen) according to the manufacturer's instructions to generate isogenic stable cell lines. Integrants were selected using 200 μg/ml hygromycin B (Invitrogen), whereas stable cell lines were maintained in 50 μg/ml hygromycin B. The procedure described above for the fluorescence expression analysis of transiently transfected cell populations was used to analyze the stable cell lines with notable exceptions. Normalization of flow cytometry data to untransfected cells was not performed as all cells express the integrated construct, and all data was normalized to cells lacking a miRNA and grown in the absence of theophylline. Normalization to cells grown under the same conditions was not performed since theophylline differentially affected the two negative controls: no miRNA and a self-targeting miRNA lacking the theophylline aptamer.

[4] = tested on: endogenous La gene; experiment: La transcript levels by qRT-PCR in stable 293-Flp-In cell lines; assay type: cell-based, human; details: four copies; for silencing of La transcript: 112 nt spacer, stable cell lines
Text: Most of the synthetic ligand-responsive RNA-based regulatory systems are encoded in the target transcript, providing regulation in cis (Suess and Weigand, 2008). However, the regulation of endogenous genes through cis regulatory strategies is currently limiting due to the lack of directed recombination technologies. To test whether ligand-responsive miRNAs provide a trans regulatory strategy for the effective regulation of endogenous genes, we incorporated a mature miRNA sequence against the endogenous La gene into wt (La1) and th1 (La2) (FIG. 9). Four copies of each miRNA separated by the longest spacer sequence were cloned into the 3′ UTR of the transcript encoding DsRed-Express, and the resulting constructs were stably integrated into a single site in 293-Flp-In cells.
as §1
Transcript levels were measured by qRT-PCR under either transient or stable transfection conditions. […] Samples were prepared in quadruplicate using the iQ SYBR green supermix and data were analyzed using the iCycler iQ software. […] The reported sample error was calculated using the following expression: […]

For `O=c1[nH]cnc2nc[nH]c12` [Hypoxanthine], the “affinity for the xanthine aptamer relative to xanthine” value [1] is listed as “comparable affinity”.

With `Cn1c(=O)c2c(ncn2C)n(C)c1=O` [caffeine, reference compound] the “response of GFP silencing to caffeine” value ([2]; 1 mM caffeine, miRNAs th1 and wt) was “insensitive”.

B1: m2: SEQ ID NO. 20; GFP-targeting control miRNA with varied bulge size, no aptamer (nucleic acid)
chain: TCTAGAACGGGAAACACAGTGAGCGAGCACAAGCTGGAGTACAACTATAGTGAAGCCACAGATGTATAGTTGTACTCCAGCTTGTGCCTGCCTACTGCCTCGGGCCC
In the case of B1, the “response of GFP levels to tetracycline” value [2] is reported as “negligible tetracycline dependence”.

B2: th2: SEQ ID NO. 25; th1 altered to target a different location in the GFP transcript (nucleic acid)
chain: TCTAGAACGGGTCCTGATACCAGCGTGAGCGCCAAGAAGATGGTGCGCTCCTGGAGTGAAGCCACAGATGTCCAGGAGCGCACCATCTTCTTGTCGCCTACGCCCTTGGCAGCAGGGCCC
modifications: expressed or natural sequence
notes: 25; th1 altered to target a different location in the GFP transcript
In the case of B2, the GFP silencing [2] is reported as “preserved silencing” and the “response of GFP levels to theophylline” value [2] is reported as “preserved silencing and the theophylline response”.

B3: xa1: SEQ ID NO. 31; GFP-targeting miRNA with the binding core of the xanthine aptamer (nucleic acid)
chain: TCTAGAACGGGTCCGTGTATTACCTGAGCGAGCACAAGCTGGAGTACAACTATAGTGAAGCCACAGATGTATAGTTGTACTCCAGCTTGTGCCCGCCTAGGTCGACGGGCCC
modifications: expressed or natural sequence
In the case of B3, the GFP silencing [2] is reported as “completely abolished silencing”.

B4: th1′: SEQ ID NO. 24; theophylline-responsive non-targeting miRNA, scrambled mature miRNA sequence (nucleic acid)
chain: TCTAGAACGGGTCCTGATACCAGCGTGAGCGAGCACAAGCTATCAACATGAGGTAGTGAAGCCACAGATGTACCTCATGTTGATAGCTTGTGCCCGCCTACGCCCTTGGCAGCAGGGCCC
In the case of B4, the GFP silencing [2] is reported as “abolished silencing” and the “GFP silencing versus miRNA copy number” value ([2]; up to four copies separated by 112 nt spacer) is reported as “no effect on GFP levels”.

B5: m1: SEQ ID NO. 19; GFP-targeting control miRNA with a large bulge in the basal segments, no aptamer (nucleic acid)
chain: TCTAGAACGGGAAGTAATTACAGTGAGCGAGCACAAGCTGGAGTACAACTATAGTGAAGCCACAGATGTATAGTTGTACTCCAGCTTGTGCCTGCCTACTGCCACATAGGGCCC
With B5 the “response of GFP levels to hypoxanthine” value [2] was “no effect”.

B6: La2: SEQ ID NO. 34; La-targeting miRNA with the theophylline aptamer in the basal segments (nucleic acid)
chain: TCTAGAACGGGTCCTGATACCAGCGTGAGCGCTGGAAATCAGTGAAGATAAAATAGTGAAGCCACAGATGTATTTTATCTTCACTGATTTCCATCGCCTACGCCCTTGGCAGCAGGGCCC
modifications: expressed or natural sequence
notes: 34; La-targeting miRNA with the theophylline aptamer in the basal segments
For B6, the “response of DsRed levels to theophylline” value [3] was “increase in DsRed levels in the presence of theophylline”, the “DsRed-Express down-regulation in cis” value [3] was “substantial DsRed-Express down-regulation” and the “response of La transcript levels to theophylline” value ([4]; 1.5 mM theophylline for over one week) was “theophylline-dependent increase in La transcript levels”. For the same molecule, the “silencing of La transcript” value [4] was “relatively strong silencing”.

B7: tc1: SEQ ID NO. 30; GFP-targeting miRNA harboring the tetracycline aptamer (nucleic acid)
chain: TCTAGAACGGGTCCTAAAACATACCGTGAGCGAGCACAAGCTGGAGTACAACTATAGTGAAGCCACAGATGTATAGTTGTACTCCAGCTTGTGCCTGCCTACGGAGAGGTGAAGAATACGACCACCTAGGGCCC
modifications: miRNA
notes: 30; GFP-targeting miRNA harboring the tetracycline aptamer
With B7 the “response of GFP levels to tetracycline” value [2] was “tetracycline-dependent increase in GFP levels” and the GFP silencing [2] was “down-regulated GFP”.

B8: wt: SEQ ID NO. 18; GFP-targeting miRNA with basal segments similar to the natural miRNA miR-30a, control (nucleic acid)
chain: TCTAGAGTTTGACAGTGAGCGAGCACAAGCTGGAGTACAACTATAGTGAAGCCACAGATGTATAGTTGTACTCCAGCTTGTGCCTGCCTACTGCCTCGGACTGAATTCATAGGGCC
In the case of B8, the GFP silencing [2] is reported as “silence GFP with comparable strength” and the “response of GFP levels to theophylline” value [2] is reported as “insensitive to theophylline”.

B9: xa2: SEQ ID NO. 32; GFP-targeting miRNA with xanthine aptamer binding core and loop, inverted (nucleic acid)
chain: TCTAGAACGGGTCCGAGGTCGACGTGAGCGAGCACAAGCTGGAGTACAACTATAGTGAAGCCACAGATGTATAGTTGTACTCCAGCTTGTGCCCGCCTACGTGTATTACCCAGGGCCC
modifications: expressed or natural sequence
With B9 the “response of GFP levels to hypoxanthine” value [2] was “hypoxanthine-dependent increase in GFP levels” and the GFP silencing [2] was “substantial GFP silencing”.

B10: La1: SEQ ID NO. 33; La-targeting miRNA with basal segments similar to miR-30a, no aptamer (nucleic acid)
chain: TCTAGAGTTTGACAGTGAGCGCTGGAAATCAGTGAAGATAAAATAGTGAAGCCACAGATGTATTTTATCTTCACTGATTTCCATTGCCTACTGCCTCGGACTGAATTCATAGGGCCC
modifications: expressed or natural sequence
notes: 33; La-targeting miRNA with basal segments similar to miR-30a, no aptamer
In the case of B10, the “response of DsRed levels to theophylline” value [3] is reported as “not observed”, the “DsRed-Express down-regulation in cis” value [3] is reported as “substantial DsRed-Express down-regulation” and the “silencing of La transcript” value [4] is reported as “relatively strong silencing”.
